B1: Myelin proteolipid protein (Homo sapiens), P60201-2 (parent)
chain: MGLLECCARCLVGAPFASLVATGLCFFGVALFCGCGHEALTGTEKLIETYFSKNYQDYEYLINVIHAFQYVIYGTASFFFLYGALLLAEGFYTTGAVRQIFGDYKTTICGKGLSATFVGITYALTVVWLLVFACSAVPVYIYFNTWTTCQSIAFPSKTSASIGSLCADARMYGVLPWNAFPGKVCGSNLLSICKTAEFQMTFHLFIAAFVGAAATLVSLLTFMIAATYNFAVLKLMGRGTKF
partner: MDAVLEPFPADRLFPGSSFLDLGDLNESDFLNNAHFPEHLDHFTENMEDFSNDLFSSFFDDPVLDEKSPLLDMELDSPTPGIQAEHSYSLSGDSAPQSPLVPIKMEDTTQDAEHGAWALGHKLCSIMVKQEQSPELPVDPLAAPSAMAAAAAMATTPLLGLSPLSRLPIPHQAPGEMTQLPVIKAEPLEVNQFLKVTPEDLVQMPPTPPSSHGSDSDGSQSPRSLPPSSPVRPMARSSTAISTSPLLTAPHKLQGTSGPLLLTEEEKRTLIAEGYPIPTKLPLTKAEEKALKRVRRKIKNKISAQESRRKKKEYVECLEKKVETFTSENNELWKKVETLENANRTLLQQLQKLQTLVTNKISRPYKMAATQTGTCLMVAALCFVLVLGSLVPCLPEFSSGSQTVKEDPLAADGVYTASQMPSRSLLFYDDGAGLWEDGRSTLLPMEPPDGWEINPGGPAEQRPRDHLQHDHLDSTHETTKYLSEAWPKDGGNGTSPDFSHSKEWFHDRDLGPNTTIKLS
B2: Phakinin (Homo sapiens), Q13515 (parent)
chain: MSERRVVVDLPTSASSSMPLQRRRASFRGPRSSSSLESPPASRTNAMSGLVRAPGVYVGTAPSGCIGGLGARVTRRALGISSVFLQGLRSSGLATVPAPGLERDHGAVEDLGGCLVEYMAKVHALEQVSQELETQLRMHLESKATRSGNWGALRASWASSCQQVGEAVLENARLMLQTETIQAGADDFKERYENEQPFRKAAEEEINSLYKVIDEANLTKMDLESQIESLKEELGSLSRNYEEDVKLLHKQLAGCELEQMDAPIGTGLDDILETIRIQWERDVEKNRVEAGALLQAKQQAEVAHMSQTQEEKLAAALRVELHNTSCQVQSLQAETESLRALKRGLENTLHDAKHWHDMELQNLGAVVGRLEAELREIRAEAEQQQQERAHLLARKCQLQKDVASYHALLDREESG
partner: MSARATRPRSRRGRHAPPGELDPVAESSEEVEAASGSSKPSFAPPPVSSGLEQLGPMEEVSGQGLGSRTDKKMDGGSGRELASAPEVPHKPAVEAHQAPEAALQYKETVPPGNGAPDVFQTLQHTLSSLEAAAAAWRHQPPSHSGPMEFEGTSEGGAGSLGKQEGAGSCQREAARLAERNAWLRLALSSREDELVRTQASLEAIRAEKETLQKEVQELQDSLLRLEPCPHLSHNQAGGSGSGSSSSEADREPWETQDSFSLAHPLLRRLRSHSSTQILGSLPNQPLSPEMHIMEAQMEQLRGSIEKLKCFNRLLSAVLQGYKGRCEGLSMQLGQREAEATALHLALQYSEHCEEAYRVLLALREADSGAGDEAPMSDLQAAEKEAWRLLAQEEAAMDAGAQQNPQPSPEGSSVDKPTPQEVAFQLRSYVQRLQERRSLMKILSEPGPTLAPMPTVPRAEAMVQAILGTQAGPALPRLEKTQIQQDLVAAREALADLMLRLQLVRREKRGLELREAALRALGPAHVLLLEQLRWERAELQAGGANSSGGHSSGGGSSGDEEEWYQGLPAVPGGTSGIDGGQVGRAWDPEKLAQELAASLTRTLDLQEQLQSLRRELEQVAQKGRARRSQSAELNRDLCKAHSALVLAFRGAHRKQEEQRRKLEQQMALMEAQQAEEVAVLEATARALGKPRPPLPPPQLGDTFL
B3: EGF-containing fibulin-like extracellular matrix protein 1 (Homo sapiens), Q12805 (parent)
chain: MLKALFLTMLTLALVKSQDTEETITYTQCTDGYEWDPVRQQCKDIDECDIVPDACKGGMKCVNHYGGYLCLPKTAQIIVNNEQPQQETQPAEGTSGATTGVVAASSMATSGVLPGGGFVASAAAVAGPEMQTGRNNFVIRRNPADPQRIPSNPSHRIQCAAGYEQSEHNVCQDIDECTAGTHNCRADQVCINLRGSFACQCPPGYQKRGEQCVDIDECTIPPYCHQRCVNTPGSFYCQCSPGFQLAANNYTCVDINECDASNQCAQQCYNILGSFICQCNQGYELSSDRLNCEDIDECRTSSYLCQYQCVNEPGKFSCMCPQGYQVVRSRTCQDINECETTNECREDEMCWNYHGGFRCYPRNPCQDPYILTPENRCVCPVSNAMCRELPQSIVYKYMSIRSDRSVPSDIFQIQATTIYANTINTFRIKSGNENGEFYLRQTSPVSAMLVLVKSLSGPREHIVDLEMLTVSSIGTFRTSSVLRLTIIVGPFSF
partner: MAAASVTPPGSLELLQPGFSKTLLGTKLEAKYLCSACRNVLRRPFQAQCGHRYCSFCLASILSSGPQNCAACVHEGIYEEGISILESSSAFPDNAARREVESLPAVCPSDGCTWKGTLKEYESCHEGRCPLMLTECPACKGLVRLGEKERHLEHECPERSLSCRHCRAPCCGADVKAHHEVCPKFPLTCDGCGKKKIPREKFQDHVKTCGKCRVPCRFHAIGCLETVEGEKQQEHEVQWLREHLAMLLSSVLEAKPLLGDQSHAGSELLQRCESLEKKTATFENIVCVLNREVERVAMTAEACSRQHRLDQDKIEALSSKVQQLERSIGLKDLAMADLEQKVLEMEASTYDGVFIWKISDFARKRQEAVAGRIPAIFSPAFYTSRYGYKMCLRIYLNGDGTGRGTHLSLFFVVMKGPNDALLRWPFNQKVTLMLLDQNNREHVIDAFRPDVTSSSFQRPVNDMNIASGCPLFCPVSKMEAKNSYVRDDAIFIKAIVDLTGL
B4: LHFPL tetraspan subfamily member 5 protein (Homo sapiens), Q8TAF8 (parent)
chain: MVKLLPAQEAAKIYHTNYVRNSRAVGVMWGTLTICFSVLVMALFIQPYWIGDSVNTPQAGYFGLFSYCVGNVLSSELICKGGPLDFSSIPSRAFKTAMFFVALGMFLIIGSIICFSLFFICNTATVYKICAWMQLAAATGLMIGCLVYPDGWDSSEVRRMCGEQTGKYTLGHCTIRWAFMLAILSIGDALILSFLAFVLGYRQDKLLPDDYKADGTEEV
partner: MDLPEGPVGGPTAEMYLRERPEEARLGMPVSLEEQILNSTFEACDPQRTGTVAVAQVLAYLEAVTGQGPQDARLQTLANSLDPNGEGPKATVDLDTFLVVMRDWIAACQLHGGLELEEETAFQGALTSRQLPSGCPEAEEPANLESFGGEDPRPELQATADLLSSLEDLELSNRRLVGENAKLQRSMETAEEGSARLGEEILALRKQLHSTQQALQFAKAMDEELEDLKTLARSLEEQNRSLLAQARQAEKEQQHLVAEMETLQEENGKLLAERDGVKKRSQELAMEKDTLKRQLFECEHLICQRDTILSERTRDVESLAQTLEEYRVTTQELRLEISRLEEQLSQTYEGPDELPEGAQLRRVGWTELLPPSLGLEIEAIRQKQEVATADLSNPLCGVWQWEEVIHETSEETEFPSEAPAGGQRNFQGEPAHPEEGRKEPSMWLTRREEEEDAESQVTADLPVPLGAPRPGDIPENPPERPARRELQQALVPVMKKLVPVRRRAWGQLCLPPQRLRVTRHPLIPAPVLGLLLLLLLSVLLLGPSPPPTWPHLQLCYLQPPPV
B5: Pyridoxine-5'-phosphate oxidase (Homo sapiens), Q9NVS9 (parent)
chain: MTCWLRGVTATFGRPAEWPGYLSHLCGRSAAMDLGPMRKSYRGDREAFEETHLTSLDPVKQFAAWFEEAVQCPDIGEANAMCLATCTRDGKPSARMLLLKGFGKDGFRFFTNFESRKGKELDSNPFASLVFYWEPLNRQVRVEGPVKKLPEEEAECYFHSRPKSSQIGAVVSHQSSVIPDREYLRKKNEELEQLYQDQEVPKPKSWGGYVLYPQVMEFWQGQTNRLHDRIVFRRGLPTGDSPLGPMTHRGEEDWLYERLAP
B6: Mothers against decapentaplegic homolog 3 (Homo sapiens), P84022 (parent)
chain: MSSILPFTPPIVKRLLGWKKGEQNGQEEKWCEKAVKSLVKKLKKTGQLDELEKAITTQNVNTKCITIPRSLDGRLQVSHRKGLPHVIYCRLWRWPDLHSHHELRAMELCEFAFNMKKDEVCVNPYHYQRVETPVLPPVLVPRHTEIPAEFPPLDDYSHSIPENTNFPAGIEPQSNIPETPPPGYLSEDGETSDHQMNHSMDAGSPNLSPNPMSPAHNNLDLQPVTYCEPAFWCSISYYELNQRVGETFHASQPSMTVDGFTDPSNSERFCLGLLSNVNRNAAVELTRRHIGRGVRLYYIGGEVFAECLSDSAIFVQSPNCNQRYGWHPATVCKIPPGCNLKIFNNQEFAALLAQSVNQGFEAVYQLTRMCTIRMSFVKGWGAEYRRQTVTSTPCWIELHLNGPLQWLDKVLTQMGSPSIRCSSVS
partner: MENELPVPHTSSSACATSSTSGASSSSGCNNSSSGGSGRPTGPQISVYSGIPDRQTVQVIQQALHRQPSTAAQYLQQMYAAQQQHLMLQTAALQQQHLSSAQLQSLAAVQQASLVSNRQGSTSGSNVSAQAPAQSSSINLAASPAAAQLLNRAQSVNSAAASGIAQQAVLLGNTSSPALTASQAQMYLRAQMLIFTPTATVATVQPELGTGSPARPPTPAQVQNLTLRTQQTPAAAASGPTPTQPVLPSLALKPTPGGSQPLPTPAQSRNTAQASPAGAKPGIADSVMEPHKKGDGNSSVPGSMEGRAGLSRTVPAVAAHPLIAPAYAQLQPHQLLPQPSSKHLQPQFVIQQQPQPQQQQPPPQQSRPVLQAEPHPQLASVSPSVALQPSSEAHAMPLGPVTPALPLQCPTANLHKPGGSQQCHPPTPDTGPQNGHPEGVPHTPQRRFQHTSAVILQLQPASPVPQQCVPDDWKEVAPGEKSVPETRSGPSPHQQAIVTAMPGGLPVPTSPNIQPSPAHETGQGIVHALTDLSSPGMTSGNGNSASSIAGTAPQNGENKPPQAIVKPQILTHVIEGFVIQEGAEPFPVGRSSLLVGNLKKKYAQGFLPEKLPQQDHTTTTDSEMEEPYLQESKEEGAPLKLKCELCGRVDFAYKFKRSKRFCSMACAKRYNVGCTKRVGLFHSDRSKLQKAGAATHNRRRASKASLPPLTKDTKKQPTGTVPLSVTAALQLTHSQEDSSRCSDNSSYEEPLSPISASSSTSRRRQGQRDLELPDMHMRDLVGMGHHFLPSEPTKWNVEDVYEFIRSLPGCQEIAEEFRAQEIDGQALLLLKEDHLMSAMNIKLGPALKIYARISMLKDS
B7: Beta-crystallin A4 (Homo sapiens), P53673 (parent)
chain: MTLQCTKSAGPWKMVVWDEDGFQGRRHEFTAECPSVLELGFETVRSLKVLSGAWVGFEHAGFQGQQYILERGEYPSWDAWGGNTAYPAERLTSFRPAACANHRDSRLTIFEQENFLGKKGELSDDYPSLQAMGWEGNEVGSFHVHSGAWVCSQFPGYRGFQYVLECDHHSGDYKHFREWGSHAPTFQVQSIRRIQQ
partner: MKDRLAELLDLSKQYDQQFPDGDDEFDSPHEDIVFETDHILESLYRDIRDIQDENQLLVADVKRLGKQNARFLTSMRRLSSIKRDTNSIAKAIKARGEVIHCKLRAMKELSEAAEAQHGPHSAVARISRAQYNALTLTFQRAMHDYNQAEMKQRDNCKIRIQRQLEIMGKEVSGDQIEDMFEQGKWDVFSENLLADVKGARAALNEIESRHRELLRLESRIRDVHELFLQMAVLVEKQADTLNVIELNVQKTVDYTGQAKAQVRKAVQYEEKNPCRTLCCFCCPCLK

Variants of: B1
Conditions: with cr3l1_human CREB3L1, Q96BA8

Row | effect of a mutation on the interaction | Variant
1 | disrupting interaction strength | A213E
2 | disrupting interaction strength | P15L

Variants of: B2
Conditions: with usbp1_human USHBP1, Q8N6Y0

Row | effect of a mutation on the interaction | Variant
3 | with no effect | R339H
4 | with no effect | A407D

Variants of: B3
Conditions: with traf2_human TRAF2, Q12933

Row | effect of a mutation on the interaction | Variant
5 | with no effect | R345W

Variants of: B4
Conditions: with kash5_human KASH5, Q8N6L0

Row | effect of a mutation on the interaction | Variant
6 | with no effect | T165M
7 | with no effect | Y127C

Variants of: B5
Conditions: with AGTRAP

Row | effect of a mutation on the interaction | Variant
8 | disrupting interaction strength | R95C
9 | disrupting interaction strength | R95H
10 | with no effect | R116Q
11 | disrupting interaction strength | R229W

Variants of: B5
Conditions: with CMTM5, Q96DZ9-2
CMTM5, Q96DZ9-2, sequence (Q96DZ9 other isoform, or with tags, fused parts or gaps): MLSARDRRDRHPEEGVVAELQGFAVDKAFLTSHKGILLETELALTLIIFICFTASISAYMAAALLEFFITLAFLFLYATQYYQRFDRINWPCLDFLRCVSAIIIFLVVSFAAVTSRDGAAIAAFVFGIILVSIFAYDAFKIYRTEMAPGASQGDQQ

Row | effect of a mutation on the interaction | Variant
12 | disrupting interaction strength | R95C
13 | disrupting interaction strength | R95H
14 | with no effect | R116Q
15 | disrupting interaction strength | R229W

Variants of: B6
Conditions: with PHC2, Q8IXK0-5

Row | effect of a mutation on the interaction | Variant
16 | with no effect | I170V
17 | with no effect | N197I

Variants of: B7
Conditions: with stx11_human STX11, O75558

Row | effect of a mutation on the interaction | Variant
18 | disrupting interaction strength | F94S
19 | disrupting interaction strength | V36M
20 | disrupting interaction strength | L69P
